Results reported in paper PMC4329186.

Molecular target: human alpha-thrombin (human, UniProt P00734;P00734 328-363;364-622)
Test: ctITP-NECEEM capillary electrophoresis; no metal ions; 400 nM thrombin; Tris-HCl sample buffer, no added metal ions, 30 min incubation; Tris and glycine reagents for CE; pH and temperature not given in the material

B1: 29mer thrombin aptamer with Ion Torrent primer handles and spacer (97 nt) (structured_DNA)
DNA: CCTCTCTATGGGCAGTCGGTGATAGTCCGTGGTAGGGCAGGTTGGGGTGACTTAAGGAGTTCAATATCTGAGTCGGAGACACGCAGGGATGAGATGG
  binding result: binds
